Test results as given in paper PMC5356532.

Key:
[1] = molecular target: Pyruvate kinase M2 (PKM2), endogenous in U251-iUS28 cells (human (endogenous in U251)) (UniProt P14618); assay: cross-linking
[2] = molecular target: Pyruvate kinase M2 (PKM2), endogenous in NIH-3T3 cells (mouse (endogenous in NIH-3T3)) (UniProt P52480); assay: cross-linking

Sequence of Pyruvate kinase M2 (PKM2), endogenous in NIH-3T3 cells, P52480 1-531 (enzyme; other documents disagree on this pair) (P52480 whole entry): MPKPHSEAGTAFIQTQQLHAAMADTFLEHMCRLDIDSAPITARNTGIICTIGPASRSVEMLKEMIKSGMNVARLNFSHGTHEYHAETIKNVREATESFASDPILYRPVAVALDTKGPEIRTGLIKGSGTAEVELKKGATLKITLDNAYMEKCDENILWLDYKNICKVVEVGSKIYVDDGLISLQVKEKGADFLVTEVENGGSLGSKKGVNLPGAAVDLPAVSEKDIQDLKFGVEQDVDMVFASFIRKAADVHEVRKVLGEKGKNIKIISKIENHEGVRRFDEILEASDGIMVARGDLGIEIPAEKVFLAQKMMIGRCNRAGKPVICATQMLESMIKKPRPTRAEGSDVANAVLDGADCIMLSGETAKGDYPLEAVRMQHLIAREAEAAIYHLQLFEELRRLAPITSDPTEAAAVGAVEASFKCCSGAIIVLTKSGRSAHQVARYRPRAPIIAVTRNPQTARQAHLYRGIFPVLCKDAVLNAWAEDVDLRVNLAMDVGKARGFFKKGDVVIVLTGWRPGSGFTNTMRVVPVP
Sequence of Pyruvate kinase M2 (PKM2), endogenous in U251-iUS28 cells, P14618 1-531 (enzyme; other documents disagree on this pair) (P14618 whole entry): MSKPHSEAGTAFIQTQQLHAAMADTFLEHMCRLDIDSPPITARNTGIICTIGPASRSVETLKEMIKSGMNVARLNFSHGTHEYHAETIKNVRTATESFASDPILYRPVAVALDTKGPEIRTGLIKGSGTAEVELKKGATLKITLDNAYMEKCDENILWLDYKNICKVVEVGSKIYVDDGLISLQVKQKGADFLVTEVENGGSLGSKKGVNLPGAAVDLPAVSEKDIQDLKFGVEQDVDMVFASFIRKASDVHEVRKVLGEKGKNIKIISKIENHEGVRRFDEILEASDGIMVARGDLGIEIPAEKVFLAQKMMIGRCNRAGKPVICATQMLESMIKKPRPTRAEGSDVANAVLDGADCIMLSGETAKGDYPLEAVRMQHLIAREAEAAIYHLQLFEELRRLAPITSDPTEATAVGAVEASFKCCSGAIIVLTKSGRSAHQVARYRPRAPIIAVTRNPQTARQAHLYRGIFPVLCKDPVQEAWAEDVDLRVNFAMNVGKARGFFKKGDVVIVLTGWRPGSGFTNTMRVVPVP

stoichiometry N [1]	stoichiometry N [2]	Substance
2	–	Pyruvate kinase M2 (PKM2), endogenous in U251-iUS28 cells, P14618 1-531 (enzyme; other documents disagree on this pair)
–	2	Pyruvate kinase M2 (PKM2), endogenous in NIH-3T3 cells, P52480 1-531 (enzyme; other documents disagree on this pair)
